{
  "source": "IntAct's records for PubMed 18775314",
  "parents": {"B1": {"name": "Vesicle-associated membrane protein 7 (Homo sapiens), P51809 (parent)", "chain": "MAILFAVVARGTTILAKHAWCGGNFLEVTEQILAKIPSENNKLTYSHGNYLFHYICQDRIVYLCITDDDFERSRAFNFLNEIKKRFQTTYGSRAQTALPYAMNSEFSSVLAAQLKHHSENKGLDKVMETQAQVDELKGIMVRNIDLVAQRGERLELLIDKTENLVDSSVTFKTTSRNLARAMCMKNLKLTIIIIIVSIVFIYIIVSPLCGGFTWPSCVKK", "partner": "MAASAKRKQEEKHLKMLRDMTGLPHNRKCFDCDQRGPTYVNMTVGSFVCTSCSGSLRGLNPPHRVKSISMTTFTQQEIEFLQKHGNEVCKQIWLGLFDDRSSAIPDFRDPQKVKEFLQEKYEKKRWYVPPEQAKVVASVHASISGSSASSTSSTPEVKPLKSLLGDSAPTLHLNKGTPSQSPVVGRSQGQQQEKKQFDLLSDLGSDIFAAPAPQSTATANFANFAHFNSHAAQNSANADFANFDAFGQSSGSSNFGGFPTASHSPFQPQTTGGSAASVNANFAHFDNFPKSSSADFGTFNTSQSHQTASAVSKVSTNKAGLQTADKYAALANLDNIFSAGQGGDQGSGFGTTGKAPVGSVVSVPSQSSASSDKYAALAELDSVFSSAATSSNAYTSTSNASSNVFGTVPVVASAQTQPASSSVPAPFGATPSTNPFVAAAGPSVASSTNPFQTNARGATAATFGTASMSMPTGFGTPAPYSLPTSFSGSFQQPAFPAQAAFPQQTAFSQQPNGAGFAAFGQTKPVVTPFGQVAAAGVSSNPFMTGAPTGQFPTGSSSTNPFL"}, "B2": {"name": "Arf-GAP domain and FG repeat-containing protein 1 (Homo sapiens), P52594 (parent)", "chain": "B1 partner"}},
  "data": [
    {"variants_of": "B1", "details": "with agfg1_human AGFG1, P52594", "values": [
      {"variant": "MAILFAVVARGTTILAKHAWCGGNFLEVTEQILAKIPSENNKSTSSHGNYLFHYICQDRIVYLCITDDDFERSRAFNFLNEIKKRFQTTYGSRAQTALPYAMNSEFSSVLAAQLKHHSENKGLDKVMETQAQVDELKGIMVRNIDLVAQRGERLELLIDKTENLVDSSVTFKTTSRNLARAMCMKNLKLTIIIIIVSIVFIYIIVSPLCGGFTWPSCVKK", "note": "[L43S;Y45S]", "effect of a mutation on the interaction": "decreasing interaction"}
    ]},
    {"variants_of": "B1", "details": "with agfg1_human AGFG1, P52594", "remark": "another data set of the same source", "values": [
      {"variant": "MAILFAVVARGTTILAKHAWCGGNFLEVTEQILAKIPSENNKSTSSHGNYLFHYICQDRIVYLCITDDDFERSRAFNFLNEIKKRFQTTYGSRAQTALPYAMNSEFSSVLAAQLKHHSENKGLDKVMETQAQVDELKGIMVRNIDLVAQRGERLELLIDKTENLVDSSVTFKTTSRNLARAMCMKNLKLTIIIIIVSIVFIYIIVSPLCGGFTWPSCVKK", "note": "[L43S;Y45S]", "effect of a mutation on the interaction": "decreasing interaction"}
    ]},
    {"variants_of": "B2", "details": "with vamp7_human VAMP7, P51809", "values": [
      {"variant": "MAASAKRKQEEKHLKMLRDMTGLPHNRKCFDCDQRGPTYVNMTVGSFVCTSCSGSLRGLNPPHRVKSISMTTFTQQEIEFLQKHGNEVCKQIWLGLFDDRSSAIPDFRDPQKVKEFLQEKYEKKRWYVPPEQAKVVASVHASISGSSASSTSSTPEVKPSKSSLGDSAPTLHLNKGTPSQSPVVGRSQGQQQEKKQFDLLSDLGSDIFAAPAPQSTATANFANFAHFNSHAAQNSANADFANFDAFGQSSGSSNFGGFPTASHSPFQPQTTGGSAASVNANFAHFDNFPKSSSADFGTFNTSQSHQTASAVSKVSTNKAGLQTADKYAALANLDNIFSAGQGGDQGSGFGTTGKAPVGSVVSVPSQSSASSDKYAALAELDSVFSSAATSSNAYTSTSNASSNVFGTVPVVASAQTQPASSSVPAPFGATPSTNPFVAAAGPSVASSTNPFQTNARGATAATFGTASMSMPTGFGTPAPYSLPTSFSGSFQQPAFPAQAAFPQQTAFSQQPNGAGFAAFGQTKPVVTPFGQVAAAGVSSNPFMTGAPTGQFPTGSSSTNPFL", "note": "[L160S;L163S]", "effect of a mutation on the interaction": "decreasing interaction"},
      {"variant": "MAASAKRKQEEKHLKMLRDMTGLPHNRKCFDCDQRGPTYVNMTVGSFVCTSCSGSLRGLNPPHRVKSISMTTFTQQEIEFLQKHGNEVCKQIWLGLFDDRSSAIPDFRDPQKVKEFLQEKYEKKRWYVPPEQAKVVASVHASISGSSASSTSSTPEVKPLKSSSGDSAPTLHLNKGTPSQSPVVGRSQGQQQEKKQFDLLSDLGSDIFAAPAPQSTATANFANFAHFNSHAAQNSANADFANFDAFGQSSGSSNFGGFPTASHSPFQPQTTGGSAASVNANFAHFDNFPKSSSADFGTFNTSQSHQTASAVSKVSTNKAGLQTADKYAALANLDNIFSAGQGGDQGSGFGTTGKAPVGSVVSVPSQSSASSDKYAALAELDSVFSSAATSSNAYTSTSNASSNVFGTVPVVASAQTQPASSSVPAPFGATPSTNPFVAAAGPSVASSTNPFQTNARGATAATFGTASMSMPTGFGTPAPYSLPTSFSGSFQQPAFPAQAAFPQQTAFSQQPNGAGFAAFGQTKPVVTPFGQVAAAGVSSNPFMTGAPTGQFPTGSSSTNPFL", "note": "[L163S;L164S]", "effect of a mutation on the interaction": "decreasing interaction"},
      {"variant": "MAASAKRKQEEKHLKMLRDMTGLPHNRKCFDCDQRGPTYVNMTVGSFVCTSCSGSLRGLNPPHRVKSISMTTFTQQEIEFLQKHGNEVCKQIWLGLFDDRSSAIPDFRDPQKVKEFLQEKYEKKRWYVPPEQAKVVASVHASISGSSASSTSSTPEVKPLKSLLGDSAPTSHSNKGTPSQSPVVGRSQGQQQEKKQFDLLSDLGSDIFAAPAPQSTATANFANFAHFNSHAAQNSANADFANFDAFGQSSGSSNFGGFPTASHSPFQPQTTGGSAASVNANFAHFDNFPKSSSADFGTFNTSQSHQTASAVSKVSTNKAGLQTADKYAALANLDNIFSAGQGGDQGSGFGTTGKAPVGSVVSVPSQSSASSDKYAALAELDSVFSSAATSSNAYTSTSNASSNVFGTVPVVASAQTQPASSSVPAPFGATPSTNPFVAAAGPSVASSTNPFQTNARGATAATFGTASMSMPTGFGTPAPYSLPTSFSGSFQQPAFPAQAAFPQQTAFSQQPNGAGFAAFGQTKPVVTPFGQVAAAGVSSNPFMTGAPTGQFPTGSSSTNPFL", "note": "[L171S;L173S]", "effect of a mutation on the interaction": "decreasing interaction"}
    ]},
    {"variants_of": "B2", "details": "with vamp7_human VAMP7, P51809", "remark": "another data set of the same source", "values": [
      {"variant": "MAASAKRKQEEKHLKMLRDMTGLPHNRKCFDCDQRGPTYVNMTVGSFVCTSCSGSLRGLNPPHRVKSISMTTFTQQEIEFLQKHGNEVCKQIWLGLFDDRSSAIPDFRDPQKVKEFLQEKYEKKRWYVPPEQAKVVASVHASISGSSASSTSSTPEVKPLKSSSGDSAPTLHLNKGTPSQSPVVGRSQGQQQEKKQFDLLSDLGSDIFAAPAPQSTATANFANFAHFNSHAAQNSANADFANFDAFGQSSGSSNFGGFPTASHSPFQPQTTGGSAASVNANFAHFDNFPKSSSADFGTFNTSQSHQTASAVSKVSTNKAGLQTADKYAALANLDNIFSAGQGGDQGSGFGTTGKAPVGSVVSVPSQSSASSDKYAALAELDSVFSSAATSSNAYTSTSNASSNVFGTVPVVASAQTQPASSSVPAPFGATPSTNPFVAAAGPSVASSTNPFQTNARGATAATFGTASMSMPTGFGTPAPYSLPTSFSGSFQQPAFPAQAAFPQQTAFSQQPNGAGFAAFGQTKPVVTPFGQVAAAGVSSNPFMTGAPTGQFPTGSSSTNPFL", "note": "[L163S;L164S]", "effect of a mutation on the interaction": "decreasing interaction"}
    ]}
  ]
}
